Results as given in US20250388633A1.

Target: growth factor receptors
Assay: cell-based or functional assay

| p-Smad1/5/8 (%) (quantification of western blots of phospho-smad1/5/8) | Binder |
| --- | --- |
| 34% | NDEGLESVPTEERSVKVAKV [SEQ ID NO: 63] |
| 31% | SSVKSQPSRVHHKPLSMLYV [SEQ ID NO: 62] |
| 29% | VVPKPSSAPTQLEPISILYL [SEQ ID NO: 59] |

The remaining lines, values behind:

| Binder | p-Smad1/5/8 (%) (quantification of western blots of phospho-smad1/5/8) |
| --- | --- |
| ASASPSSVSQDLSSLSILFF [SEQ ID NO: 58] | 37% |
| SIPKASSTPTELSPINMLYF [SEQ ID NO: 54] | 32% |
| NDEGLESVPTEESAISMLYL [SEQ ID NO: 56] | 28% |
| SSVKSQPSRVHHSPISILFI [SEQ ID NO: 57] | 41% |
